The values that follow come from the RNAGym collection of RNA variant scans (doi:10.1073/pnas.2313332121).

To fix the notation:
B1: TPR t1 (parent)
chain: GACCAAUCUGCCCUCAGAGCUCGAGAACAUCUUCGGAUGCAGAGGAGGCAGGCUUCGGUGGCGCGAUAGCGCCAACGUCCUCAACCUCCAAUGCAUCCCACCACAUGAUGAUGCCUGAAGAGCCUUGGUUUUUUG

Variants of B1 are the subject of the series. Put plainly: polymerase ribozyme fitness, log enrichment relative to wild type (log ratio); higher = more active; in vitro selection for triplet polymerase activity. Summed up:
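Fitness measures genotype enrichment against wild-type enrichment on a logarithmic scale, with inverse-variance-weighted averaging of replicates. The logarithm is base 2, and genotypes were kept only with ≥10 input reads and ≥1 read per output in Illumina sequencing. The sequenced libraries came from one triplicate in vitro selection round, including frozen incubation at −7 °C, of PCR-built, transcribed mutant libraries of each subunit of a heterodimeric triplet polymerase ribozyme.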
With G45A C102A G122A, the “polymerase ribozyme fitness (log ratio)” value is -3.14. In the case of C4G A46U C53U C70A it was -2.97; in that of G42A C62U A83C U112A, -2.06. The result for C4U C49U A66G reads -2.3; that for G63C A91G G113A, -2.9. In the case of C13G C79A C86A it was -5.8; in that of G39C A43U C85A U112A C115U U130C, -4.22; in that of G63A G110A, -2.72. Take C11G G44C C86G U126A: the “polymerase ribozyme fitness (log ratio)” value was -2.2. The result for C79A reads -1.04. The result for A95C G113U G120C U125A reads -3.79.

Consider G60U C115A, for which the “polymerase ribozyme fitness (log ratio)” value came out at 0.226. In the case of A43G C56G G69U A108G C124A it was -2.3; in that of C62G C73U A74U U109G C124A, -6.92. With C8A U21A A46U, the “polymerase ribozyme fitness (log ratio)” value is -1.03. On to C80U C89G, for which the “polymerase ribozyme fitness (log ratio)” value is -1.42. In the case of G39A G71C G93U C104U C123A it was -3.19; in that of G51U C124U, -2.88; in that of C53U U132C, -0.221. In the case of C22G C82A A83U G93C it was -4.04. In the case of C98U A111C it was -2.13; in that of G61U G120C U125A, 0.559. With A5U C13G G63A C89U U92A G120A, the “polymerase ribozyme fitness (log ratio)” value is -5.85. The result for G60A U78G G113C U133G reads -3.73. As to U9C C22U G58A G61C C114A, the “polymerase ribozyme fitness (log ratio)” value is -4.7. The result for C70U G93A reads -0.708; that for C82G C89A, -2.23. The result for A37U G52U C64U C123A C124A reads 0.273; that for A50U C70U, -1.67. The result for G61U U106C G135U reads -1.67. Turning to G58C G61U C94A U116A, the “polymerase ribozyme fitness (log ratio)” value was -3.54.

C8G U14A: the “polymerase ribozyme fitness (log ratio)” value was 0.372. Turning to G47A G77U, the “polymerase ribozyme fitness (log ratio)” value is -0.132. With U38G G77A U78C U125A, the “polymerase ribozyme fitness (log ratio)” value is -1.89. As for G63U U130G, the “polymerase ribozyme fitness (log ratio)” value is -0.881. In the case of G17U U116A G120A U129G it was -5.36; in that of C102G C104U, -6.12; in that of C40G G107A, -6.63.

On to C28G C53G U59A C73A C89A U109G A111U G120A, for which the “polymerase ribozyme fitness (log ratio)” value was -6.66. Consider C8G A16U, for which the “polymerase ribozyme fitness (log ratio)” value is 0.648. In the case of C123U G128C it was -0.354; in that of A18U G57C G77U A105U U112C, -4.24; in that of C13G G45U C72U C89A G120U U130A, -2.6.

As for U54C C56A C89U, the “polymerase ribozyme fitness (log ratio)” value was -0.439. In the case of G60U G93A A105C it was -3.53; in that of U14A C22A G61C G65A C101U G120C, -7.89.

On to A24C C101G U112G, for which the “polymerase ribozyme fitness (log ratio)” value is -6.34.

For the variant U21A A91U, the “polymerase ribozyme fitness (log ratio)” value is -2.43. The result for G42U A50C U92C reads -2.73; that for C20A C34G C85U A90C G120C, -5.64. In the case of C104A A118U U125G U130A it was -3.67; in that of A27G C49G G61C G63U C89G G117C, -6.39. In the case of A16U A41G G44A G117C it was -4.44; in that of C12A A29C A84C, -3.21. C11U C40U C101A: the “polymerase ribozyme fitness (log ratio)” value is -2.4.

As for A50G C70U A111U, the “polymerase ribozyme fitness (log ratio)” value is -4.72. In the case of A50U C56G it was -1.76; in that of C15A G39A U87G U112G, -2.16; in that of C28G C72A C98A G122U, -5.55. In the case of U55A U81A G113A it was -2.4.

Turning to A37U G42A, the “polymerase ribozyme fitness (log ratio)” value is -2.01.

As for G19C C89A U125G, the “polymerase ribozyme fitness (log ratio)” value is -2.33. In the case of C64U C79U U106A U109A it was -5.15; in that of C20A A121U, -0.837.

For C56U G69U U112G A119U, the “polymerase ribozyme fitness (log ratio)” value is -3.07. In the case of C20G C76A it was -4.94; in that of G69A G127A, -4.05.

Regarding A2C C11U, the “polymerase ribozyme fitness (log ratio)” value is -2.65.

With A2U C64U, the “polymerase ribozyme fitness (log ratio)” value was -2. In the case of U32G U59C U112A G122U it was -6.09; in that of G35C A83U A121G U126A, -4.11. The result for A29C C53G U133G reads -4.74; that for A46U C82G U87G, -1.06. Regarding C20U A111C, the “polymerase ribozyme fitness (log ratio)” value is -1.7. In the case of G51A A74G it was -1.96; in that of C73U U87C C88U A111G C123A, -2.06; in that of G60C C73U, -1.41. In the case of G17U C101U it was -2.53; in that of G19U C20A C72G G77C A91C C94A U106A, -5.31; in that of C88U A100G A108G U133G, -5.29. In the case of G69C C70U C80U U112G G117U A118U it was -7.19. Take G69U C101A: the “polymerase ribozyme fitness (log ratio)” value was -0.434.

With G48U C88U G110A, the “polymerase ribozyme fitness (log ratio)” value is -1.01.

C89U G135U: the “polymerase ribozyme fitness (log ratio)” value is -0.983. In the case of U14C U106A G110A U112A it was -3.36; in that of C15A G122A, -1.85. The result for A2U U106A reads -1.89; that for C20A A43U, -3.83; that for U7A C12G A18U G45U U54G, -3.04. In the case of G44U C73A C102A it was -2.29; in that of G77A C123G G135U, 0.853. On to A43U A46U G58C G60A, for which the “polymerase ribozyme fitness (log ratio)” value is -2.67. In the case of C4G C123A it was -0.461; in that of G60C G127U, -0.837. As for A6U C12G C89G A105C U106G, the “polymerase ribozyme fitness (log ratio)” value was -3.35. The result for C8A G19C C82A reads -1.97.

For the variant C22U G63C C88A U130C, the “polymerase ribozyme fitness (log ratio)” value was -5.23.

For U30C G63A C124G, the “polymerase ribozyme fitness (log ratio)” value is -3.09. As to C34A G61C, the “polymerase ribozyme fitness (log ratio)” value is -4.99.

As to C89A C114A, the “polymerase ribozyme fitness (log ratio)” value is -2.6. The result for A16U G17A C49U G57U A90U reads -5.5.

Turning to A5U U7A C15U C76A, the “polymerase ribozyme fitness (log ratio)” value is -1.76. As for G60A C80U C89U, the “polymerase ribozyme fitness (log ratio)” value is -2.13.

Take U55C C79A: the “polymerase ribozyme fitness (log ratio)” value was -2.08. On to C86G C123U, for which the “polymerase ribozyme fitness (log ratio)” value was 0.323.

On to C40G C89G, for which the “polymerase ribozyme fitness (log ratio)” value was -2.85. The result for A46G C53A G127C reads -1.2; that for C11G A41C U87A U92G, -1.84. In the case of C34A U54G C56A it was -4.3; in that of U9G G39A C86U G110U, -2.18; in that of C4A G17A C53G C70G U106G G113A C115U U131A, -6.14. In the case of G61U C79A G110U it was -3.28. As to C79G C88G U112A, the “polymerase ribozyme fitness (log ratio)” value was -1.98. In the case of C49U A68G it was -4.08; in that of G63A U92A, -4.6. The result for C70U G122U reads -0.0756. The result for C40U C101A U112C reads 0.157. Take C88A A100U C115U: the “polymerase ribozyme fitness (log ratio)” value is -3.24. The result for C115A G122U U132C reads -0.273; that for C8U G63U A90U G113C, -3.6. In the case of C8U A29U G47C C72U C102A it was -5.13. As for C4U A27U C64U A95C A111C A118G, the “polymerase ribozyme fitness (log ratio)” value was -6.19.

As to G93C C94A, the “polymerase ribozyme fitness (log ratio)” value was -1.68. In the case of C20U A26C C89U C124A it was -4.83; in that of A5U C49G C53A G71U, -0.914; in that of G47C C73G U81A, -2.91. Consider A37U G47A G77A, for which the “polymerase ribozyme fitness (log ratio)” value was -1.29. Consider G52U G71U, for which the “polymerase ribozyme fitness (log ratio)” value was -0.703. The result for C4U G120A reads 0.077; that for C20G A46U C62U C114U, -3.55.

With U9C G69U, the “polymerase ribozyme fitness (log ratio)” value was found to be 1.23. The result for C56G C97A reads -5.24; that for G48U G120A C123U, 0.409; that for A29C U55C C115A U133A, -2.81.

Take U9C C40U C62G G117C: the “polymerase ribozyme fitness (log ratio)” value is -5.48.

Turning to C13U G57A C79A, the “polymerase ribozyme fitness (log ratio)” value is -1.12. In the case of A27G C70U U131A it was -3.2; in that of A108U U112C, -5.97; in that of U38G G69U C98A, -4.75. In the case of U55C G113A it was -1.89; in that of G44A U129A, -1.83; in that of C12U C115A, 0.202.

As for A6U A121G, the “polymerase ribozyme fitness (log ratio)” value amounted to 2.04. The result for A27G A41G G71A reads -2.99. The result for C22G G63U U92G G110A reads -5.8; that for C4U G10A G52U U81G C123G U125A, -4.99; that for C56U G127U, -0.508. The result for C12U U81G reads -2.24; that for C8A C82A A90C, -1.03; that for G47A C101U, -1.23.

Consider C64U A103U, for which the “polymerase ribozyme fitness (log ratio)” value is -3.47. Take C12U G36U A74C C94U A111G U116A: the “polymerase ribozyme fitness (log ratio)” value was -2.62. In the case of G120U U130A it was -0.3. In the case of C82A U129C it was -0.227; in that of C3A C20G G60A C79U C98G C99A C123G, -2.5; in that of G60A G113C, -2.12.

For the variant G61C U133A, the “polymerase ribozyme fitness (log ratio)” value was -1.7. In the case of C20A C53A G57A C73U C79U C102A A121C it was -4.43. In the case of C72G C73U it was -0.887; in that of U21C C72U, -0.489.

Turning to C99U U129G, the “polymerase ribozyme fitness (log ratio)” value is -3.83. The result for G120C C123G reads 0.469; that for C8U G39U C49G G63C U78A G128A, -4.09; that for C62A U133G, -2.87. The result for A18U A74U U78C A111C reads -4.61; that for C3U A6U G45U C72G C79G C114A, -5.66. The result for C12U C72U C86U U112C reads 1.05.
